Results on one molecule are retold here after publication doi:10.1101/2023.03.24.534125 (bioRxiv, 2023).

This assay has as its target T1, CRISPR array binding protein 1, Cbp1 (S. solfataricus P2, SSO0454) (S. solfataricus P2, UniProt Q97ZW9 1-150).
T1 sequence (looked up): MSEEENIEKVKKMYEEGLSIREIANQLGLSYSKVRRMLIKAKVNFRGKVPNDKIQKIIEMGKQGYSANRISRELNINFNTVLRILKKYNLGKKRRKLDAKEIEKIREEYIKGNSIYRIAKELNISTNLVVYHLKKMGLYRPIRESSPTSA
As to the kind of experiment: native gel or EMSA. For orientation: In EMSA bound probe runs differently from free probe, usually more slowly.

B1: Cren7 (S. solfataricus, SSO6901) (natural protein, UniProt Q97ZE3 1-60, looked up)
chain: MSSGKKPVKVKTPAGKEAELVPEKVWALAPKGRKGVKIGLFKDPETGKYFRHKLPDDYPI
As a reminder, the stoichiometry N is the number of molecules, sites or subunits per partner or assembly. Turning to B1, the “stoichiometry N” value was determined as 2.
